Source: paper PMC4312765 (Protein & Cell, 2014)

Molecular target: the molecule itself
Test: static light scattering + AUC; Dpy30FL and Dpy30C in solution

B1: Dpy30 C-terminal domain (domain or fragment)
chain: not shown
stoichiometry N: 2
